In US20260193326A1 (published 2026) one finds Kd, koff and kon data, which are given here for 15 molecules.

What all share (experiment): SPR, AAV amine-coupled to CM5 chip;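 further: nanobodies flowed as analyte at seven concentrations spanning 1–100 nM over immobilized AAV (500–800 RU), kinetic constants derived by fitting the binding curves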
One experiment concerns the target T1, AAV8 (adeno-associated virus 8).
T1 construct: also called adeno-associated virus serotype 8

The target in the next experiment is T2, AAV5 (adeno-associated virus 5).
T2 construct: also called adeno-associated virus serotype 5

In a further experiment the target is T3, AAV9 (adeno-associated virus 9).
T3 construct: also called adeno-associated virus serotype 9

The next experiment deals with T4, AAV2 (adeno-associated virus 2, UniProt P03135 1-735).
T4 construct: also called adeno-associated virus serotype 2

Method for AAV2: (§1) AAV was amine-coupled to a CM5 sensor chip at a density of 500-800 response units (RU). Nanobodies were injected at seven concentrations (1-100 nM) with a flow rate of 45 μL/min, and chip regeneration was performed using glycine-HCl (pH 1.5). Binding curves at different nanobody concentrations were used to calculate kinetic parameters (Kₐ, Kd, KD) (Table 2 and FIG. 2).
Method for AAV5: as §1
Method for AAV8: as §1
Method for AAV9: as §1

B1: A4-051 (VHH)
VHH: VQLQESGGGLVQPGGSLRLSCAASGSSFVINTMGWYRRAPGKQRELVAAVTRGGSTNYADSVKGRFTISRDNAKNTVYLQMNSLRPEDTAVYYCHVDEVRQSSWTTSNLWGQGTQVTVSS
In the case of B1, the Kd with AAV8 was 791 nM; in the experiment with AAV5, 748 nM; in the experiment with AAV9, 712 nM; in the experiment with AAV2, 907 nM. For the same molecule, the off-rate (koff) in the experiment with AAV8 worked out at 0.00466 s⁻¹; with AAV5 it was 0.00507 s⁻¹; with AAV9, 0.00477 s⁻¹; in the experiment with AAV2 it was 0.00325 s⁻¹. Moreover, the kon in the experiment with AAV8 is 5890 M⁻¹ s⁻¹; with AAV5 it was 6780 M⁻¹ s⁻¹; in the experiment with AAV9, 6700 M⁻¹ s⁻¹; with AAV2, 3580 M⁻¹ s⁻¹.

B2: A4-091 (VHH)
VHH: VQLQESGGGLVQPGGSLRLSCAASGSRFSINTMGWYRQRAGKQRELVATVTRDGSTTYANSVKGRFTISRDNAKNTVYLQMNSLRPEDTAVYYCHVDELRQSTWTTSNLWGQGTQVTVSS
In the experiment with AAV8, B2 registered a Kd of 99.4 nM, a koff of 0.00091 s⁻¹ and a kon of 9160 M⁻¹ s⁻¹. In addition, in the experiment with AAV5, the affinity, expressed as Kd, was 4.49 nM; the koff was found to be 3e-05 s⁻¹; the kon was 6690 M⁻¹ s⁻¹. In the experiment with AAV9, binding was put at a Kd of 34.5 nM, the koff is 0.0002 s⁻¹ and the kon came out at 5790 M⁻¹ s⁻¹.

B3: A4-054 (VHH)
VHH: VQLQESGGGLVQPGGSLRLSCAASGSAFSINTMGWYRQAPGKQRELVAAVTRGGSTNYADSVKGRFTISRDNAKNTVYLQMNSLRPEDTAVYYCHVDEVRQSSWTTSNLWGQGTQVTVSS
B3: the Kd with AAV8 came out at 368 nM; with AAV5, 213 nM; with AAV9 it was 28.9 nM; with AAV2, 1060 nM. Also, the off-rate constant (koff) with AAV8 was 0.0018 s⁻¹; with AAV5 it was 0.00163 s⁻¹; with AAV9, 0.00025 s⁻¹; in the experiment with AAV2, 0.00114 s⁻¹. The kon was 4890 M⁻¹ s⁻¹ with AAV8, 7660 M⁻¹ s⁻¹ in the experiment with AAV5 and 8660 M⁻¹ s⁻¹ with AAV9.

B4: A4-064 (VHH)
VHH: VQLQESGGGLVQSGGSLRLSCAASGRNFSLNTVGWYRQAPGKQRELVATVTSGGGTNYAGSVKGRFTISRDNAKNTVYLQMNSLRPEDTAVYYCHVDEVRESTWTTSNLWGQGTQVTVSS
For the molecule B4, the Kd in the experiment with AAV8 was determined as 227 nM; with AAV5, 81.8 nM; with AAV9, 420 nM; in the experiment with AAV2 it was 75.7 nM. The koff amounted to 0.0017 s⁻¹ with AAV8, 0.00046 s⁻¹ with AAV5, 0.00128 s⁻¹ in the experiment with AAV9 and 0.0005 s⁻¹ with AAV2. Further, the kon was 7500 M⁻¹ s⁻¹ with AAV8, 5620 M⁻¹ s⁻¹ with AAV5, 3050 M⁻¹ s⁻¹ with AAV9 and 6600 M⁻¹ s⁻¹ in the experiment with AAV2.

B5: A4-097 (VHH)
VHH: VQLQESGGGLVQPGGSLRLSCIASGSIFSANTMGWYRQAPGKQRELVATITRGGNTNYGDSVKGRFTISRDNAKNTVYLQMNTLRPEDTAVYYCHVDEIRESSWTTSNLWGQGTQVTVSS
For the molecule B5, the Kd was 12.4 nM in the experiment with AAV8, 578 nM in the experiment with AAV5 and 62.3 nM with AAV9. Moreover, the koff in the experiment with AAV8 came to 0.00192 s⁻¹; with AAV5, 0.00544 s⁻¹; in the experiment with AAV9 it was 0.00816 s⁻¹. For the same molecule, the kon in the experiment with AAV8 was found to be 155000 M⁻¹ s⁻¹; in the experiment with AAV5, 9410 M⁻¹ s⁻¹; in the experiment with AAV9, 131000 M⁻¹ s⁻¹.

B6: A4-087 (VHH)
VHH: VQLQESGGGLVQPGGSLRLSCAASGSRFSLNTMGWYRQAPGKQRELVAAVTRGGNTNYGDFVKGRFTISRDNAKNTVYLQMNSLRPEDTAVYYCHVDELRESSWTTSNLWGQGTQVTVSS
In the experiment with AAV8, B6 registered a Kd of 1.05 nM, a koff of 0.00012 s⁻¹ and a kon of 115000 M⁻¹ s⁻¹. In the experiment with AAV5, this molecule yielded an equilibrium dissociation constant (Kd) of 1.69 nM, a koff of 0.0003 s⁻¹ and a kon of 177000 M⁻¹ s⁻¹. In the experiment with AAV9, this molecule yielded a dissociation constant (Kd) of 4.13 nM, a koff of 0.00023 s⁻¹ and a kon of 55700 M⁻¹ s⁻¹.

B7: A4-098 (VHH)
VHH: VQLQESGGGLVQPGGSLRLSCIASGSIFSINTMGWYRQAPGKQRELVATITRGGNTNYGDSVKGRFTISRDNAKNTVYLQMNTLRPEDTAVYYCHVDEIRESSWTTSNLWGQGTQVTVSS
For the molecule B7, the figures for the equilibrium dissociation constant (Kd) with AAV8, with AAV5 and with AAV9 were 23.3 nM, 130 nM and 82.2 nM, respectively. In addition, the koff with AAV8 was found to be 0.00018 s⁻¹; in the experiment with AAV5 it was 0.00117 s⁻¹; with AAV9, 0.0006 s⁻¹. Besides, the kon worked out at 7740 M⁻¹ s⁻¹ with AAV8, 9030 M⁻¹ s⁻¹ with AAV5 and 7300 M⁻¹ s⁻¹ with AAV9.

B8: A4-067 (VHH)
VHH: VQLQESGGGLVQTGGSLRLSCAASGRAFSLNTMGWYRQAPGKWRELVATVTRGGSTNYAGSVKGRFTISRDNTKNTVYLQMNNLRPEDTAVYYCHVDEVRESSWTTSNLWGQGTQVTVSS
On to B8, for which the Kd stood at 128 nM with AAV8, 7.14 nM with AAV5, 106 nM in the experiment with AAV9 and 16 nM in the experiment with AAV2. Further, the koff came out at 0.00044 s⁻¹ with AAV8, 2e-05 s⁻¹ with AAV5, 0.00035 s⁻¹ in the experiment with AAV9 and 3e-05 s⁻¹ in the experiment with AAV2. Further, the kon with AAV8 worked out at 3440 M⁻¹ s⁻¹; with AAV5, 2800 M⁻¹ s⁻¹; in the experiment with AAV9, 3320 M⁻¹ s⁻¹; in the experiment with AAV2, 1870 M⁻¹ s⁻¹.

B9: A4-094 (VHH)
VHH: VQLQESGGGLVQPGGSLRLSCVASGSIFVINTMGWYRQAPGKQRELVATVTRDGGTNYADSVKGRFTISRDNAKNTVYLQMNSLRPEDTAVYYCHIDEIRESSWTTSNLWGQGTQVTVSS
B9: in the experiment with AAV8, the Kd turned out to be 86.5 nM, the koff was found to be 0.00058 s⁻¹ and the kon worked out at 6710 M⁻¹ s⁻¹. In the experiment with AAV5, the Kd is 171 nM, the koff was 0.00166 s⁻¹ and the association rate constant (kon) stood at 9680 M⁻¹ s⁻¹. In the experiment with AAV9, this molecule returned a dissociation constant Kd of 44.8 nM, a dissociation rate constant (koff) of 0.00043 s⁻¹ and a kon of 9600 M⁻¹ s⁻¹.

B10: A4-056 (VHH)
VHH: VQLQESGGGLVQPGGSLRLSCAASGSAFSINTMGWYRQAPGKQREKVAAVTRGGSTNYADSVKGRFTISRDNAKNTVYLQMNSLRPEDTAVYYCHVDEVRQSSWTTSNLWGQGTQVTVSS
Turning to B10, the Kd with AAV8 came out at 265 nM; in the experiment with AAV5, 622 nM; in the experiment with AAV9, 96.9 nM; with AAV2, 224 nM. For the same molecule, the koff was 0.00779 s⁻¹ in the experiment with AAV8, 0.00648 s⁻¹ with AAV5, 0.00887 s⁻¹ with AAV9 and 0.00485 s⁻¹ with AAV2. Moreover, the kon came out at 29400 M⁻¹ s⁻¹ in the experiment with AAV8, 10400 M⁻¹ s⁻¹ with AAV5, 91500 M⁻¹ s⁻¹ with AAV9 and 21600 M⁻¹ s⁻¹ in the experiment with AAV2.

B11: A4-086 (VHH)
VHH: VQLQESGGGLVQPGGSLRLSCAASGSRFSLNTMGWYRQAPGKQRELVAAVTRGGNTNYADFVKGRFTISRDNAKNTVYLQMNSLRPEDTAVYYCHVDELRESSWTTSNLWGQGTQVTVSS
Regarding B11, in the experiment with AAV8, the Kd is 0.76 nM, the koff was 6e-05 s⁻¹ and the kon came to 78900 M⁻¹ s⁻¹. In the experiment with AAV5, this molecule registered a Kd of 23.1 nM, a koff of 0.00107 s⁻¹ and a kon of 46400 M⁻¹ s⁻¹. In the experiment with AAV9, binding was put at a Kd of 1.45 nM, the koff was 0.00026 s⁻¹ and the kon was determined as 179000 M⁻¹ s⁻¹.

B12: A4-100 (VHH)
VHH: VQLQESGGGLVQPGGSLRLSCAASGSIFVINTMGWYRQAPGKQRELVASLTRGGSTNYADSVKGRFTISRDNDKNTIYLQMNSLRPEDTAVYYCHVDEVRESTWTTSNIWGQGTQVTVSS
In the case of B12, the equilibrium dissociation constant (Kd) is 36.2 nM with AAV8, 6.75 nM in the experiment with AAV5 and 7.64 nM with AAV9. In addition, the values for the koff with AAV8, with AAV5 and in the experiment with AAV9 were 0.00356 s⁻¹, 0.00124 s⁻¹ and 0.00126 s⁻¹, respectively. For the same molecule, the results for the kon with AAV8, with AAV5 and with AAV9 were 98300 M⁻¹ s⁻¹, 184000 M⁻¹ s⁻¹ and 165000 M⁻¹ s⁻¹, respectively.

B13: A4-095 (VHH)
VHH: VQLQESGGGLVQPGGSLRLSCAASGSSFSANTMGWYRQAPGKQRELVATITRGGNTNYGDSVKGRFTISRDNAKDTVYLQMNSLRPEDTAVYYCHIDEIRESTWTTSNLWGQGTQVTVSS
In the experiment with AAV8, B13 registered a dissociation constant Kd of 2.25 nM, a koff of 0.00026 s⁻¹ and a kon of 116000 M⁻¹ s⁻¹. In the experiment with AAV5, binding was characterised by a dissociation constant (Kd) of 14.5 nM, the dissociation rate constant (koff) is 0.00133 s⁻¹ and the kon amounted to 91800 M⁻¹ s⁻¹. In the experiment with AAV9, this molecule showed a Kd of 6.34 nM, a koff of 0.00114 s⁻¹ and an on-rate (kon) of 180000 M⁻¹ s⁻¹.

B14: A4-085 (VHH)
VHH: VQLQESGGGLVQPGGSLRLSCAASGSRFSLNTMGWYRQAPGKQREFVAAVTRGGNTNYGDFVKGRFTISRDNAKNTVYLQMNSLRPEDTAVYYCHVDELRESSWTTSNLWGQGTQVTVSS
For the molecule B14, the Kd with AAV8 worked out at 108 nM; with AAV5, 192 nM; with AAV9, 223 nM. Also, the koff with AAV8 was 0.00041 s⁻¹; with AAV5, 0.00191 s⁻¹; with AAV9, 0.0005 s⁻¹. Moreover, the kon stood at 3790 M⁻¹ s⁻¹ in the experiment with AAV8, 9940 M⁻¹ s⁻¹ in the experiment with AAV5 and 2240 M⁻¹ s⁻¹ with AAV9.

B15: A4-096 (VHH)
VHH: VQLQESGGGLVQPGGSLRLSCIASGSSFSANTMGWYRQAPGKQRELVATITRGGNTNYGDSVKGRFTISRDNAKNTVYLQMNSLRPEDTAVYYCHIDEIRESTWTTSNLWGQGTQVTVSS
In the experiment with AAV8, B15 yielded a dissociation constant Kd of 15.4 nM, a koff of 0.00169 s⁻¹ and a kon of 110000 M⁻¹ s⁻¹. In the experiment with AAV5, binding was characterised by a dissociation constant (Kd) of 48.9 nM, the koff was determined as 0.00123 s⁻¹ and the kon amounted to 25100 M⁻¹ s⁻¹. In addition, in the experiment with AAV9, the Kd turned out to be 5.14 nM, the off-rate (koff) was found to be 0.00064 s⁻¹ and the kon is 125000 M⁻¹ s⁻¹.
